From paper PMC6034511 come the findings set out here.

This data set relates to HIV-1 RT p66/p51 wild type (HIV-1). The data set can be described thus: fluorescence polarization. To be noted: not stated in the held text (SI Experimental section). For orientation: Polarisation of emitted light reports the rotation of a fluorescent probe.

Substance 5'-fluorescein DNA/RNA hybrid had a Kd of 3.5 nM.

In general, Kd refers to a measure of binding affinity in units of concentration. A higher Kd goes with lower affinity.
